Laboratory results from paper doi:10.1101/2024.03.15.585299, “Biochemical analysis of the endoribonuclease activity of the human mitochondrial topoisomerase 1”.

Assays:
Test in all cases: fluorescence anisotropy; 20 mM Tris pH 8, 66 mM NaCl, 1 mM DTT, 10% glycerol, 25 C, 10 min; 0.5 nM dsDNA, 0-60 nM Top1
Details in all cases: protein: recombinant; tags: GST removed by 3C protease; label: 5'-FAM top strand; blunt
[1] = molecular target: T1, scTop1 catalytically inactive (Y272F as printed) (Saccharomyces cerevisiae, UniProt P04786 1-769, Y727F)
T1 sequence: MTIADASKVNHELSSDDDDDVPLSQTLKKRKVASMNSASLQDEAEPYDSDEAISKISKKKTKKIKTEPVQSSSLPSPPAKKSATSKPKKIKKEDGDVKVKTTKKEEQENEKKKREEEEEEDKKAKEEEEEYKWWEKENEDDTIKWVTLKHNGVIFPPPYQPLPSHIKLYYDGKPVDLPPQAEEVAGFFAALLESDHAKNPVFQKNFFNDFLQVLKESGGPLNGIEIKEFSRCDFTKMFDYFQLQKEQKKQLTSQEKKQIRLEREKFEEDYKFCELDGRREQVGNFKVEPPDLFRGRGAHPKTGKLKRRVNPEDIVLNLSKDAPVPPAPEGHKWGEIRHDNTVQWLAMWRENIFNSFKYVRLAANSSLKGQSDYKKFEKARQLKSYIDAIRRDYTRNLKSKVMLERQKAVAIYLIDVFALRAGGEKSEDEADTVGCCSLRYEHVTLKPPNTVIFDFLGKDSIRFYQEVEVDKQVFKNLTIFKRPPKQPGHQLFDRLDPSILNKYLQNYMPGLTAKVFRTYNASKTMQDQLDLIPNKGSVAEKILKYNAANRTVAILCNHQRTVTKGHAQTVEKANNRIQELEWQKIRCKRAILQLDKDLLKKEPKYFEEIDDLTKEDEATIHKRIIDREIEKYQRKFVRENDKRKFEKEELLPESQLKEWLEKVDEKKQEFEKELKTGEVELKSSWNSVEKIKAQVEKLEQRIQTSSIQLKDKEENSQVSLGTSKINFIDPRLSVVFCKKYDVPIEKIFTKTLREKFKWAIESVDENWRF

[2] = molecular target: hTop1-Y723F (catalytically inactive) (Homo sapiens, UniProt P11387 1-765, Y723F)
[3] = molecular target: T2, hTop1mt-Y559F (catalytically inactive) (Homo sapiens, UniProt Q969P6 51-601, Y559F)
T2 sequence: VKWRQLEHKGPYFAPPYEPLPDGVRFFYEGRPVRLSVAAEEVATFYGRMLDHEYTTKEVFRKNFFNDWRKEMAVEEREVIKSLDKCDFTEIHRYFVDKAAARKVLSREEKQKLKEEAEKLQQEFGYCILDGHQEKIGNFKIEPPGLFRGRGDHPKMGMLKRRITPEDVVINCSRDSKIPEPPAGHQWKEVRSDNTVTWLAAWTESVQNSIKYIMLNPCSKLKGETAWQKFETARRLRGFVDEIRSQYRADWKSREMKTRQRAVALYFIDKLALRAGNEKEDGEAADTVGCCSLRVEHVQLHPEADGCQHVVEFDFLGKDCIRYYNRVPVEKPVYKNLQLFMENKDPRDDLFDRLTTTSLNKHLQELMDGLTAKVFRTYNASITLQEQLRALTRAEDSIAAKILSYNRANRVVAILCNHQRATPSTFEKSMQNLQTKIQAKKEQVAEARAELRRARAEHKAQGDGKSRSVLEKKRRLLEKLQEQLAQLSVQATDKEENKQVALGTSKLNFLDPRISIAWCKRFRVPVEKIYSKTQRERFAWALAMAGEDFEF

Sequence of hTop1-Y723F (catalytically inactive) (P11387 whole entry Y723F): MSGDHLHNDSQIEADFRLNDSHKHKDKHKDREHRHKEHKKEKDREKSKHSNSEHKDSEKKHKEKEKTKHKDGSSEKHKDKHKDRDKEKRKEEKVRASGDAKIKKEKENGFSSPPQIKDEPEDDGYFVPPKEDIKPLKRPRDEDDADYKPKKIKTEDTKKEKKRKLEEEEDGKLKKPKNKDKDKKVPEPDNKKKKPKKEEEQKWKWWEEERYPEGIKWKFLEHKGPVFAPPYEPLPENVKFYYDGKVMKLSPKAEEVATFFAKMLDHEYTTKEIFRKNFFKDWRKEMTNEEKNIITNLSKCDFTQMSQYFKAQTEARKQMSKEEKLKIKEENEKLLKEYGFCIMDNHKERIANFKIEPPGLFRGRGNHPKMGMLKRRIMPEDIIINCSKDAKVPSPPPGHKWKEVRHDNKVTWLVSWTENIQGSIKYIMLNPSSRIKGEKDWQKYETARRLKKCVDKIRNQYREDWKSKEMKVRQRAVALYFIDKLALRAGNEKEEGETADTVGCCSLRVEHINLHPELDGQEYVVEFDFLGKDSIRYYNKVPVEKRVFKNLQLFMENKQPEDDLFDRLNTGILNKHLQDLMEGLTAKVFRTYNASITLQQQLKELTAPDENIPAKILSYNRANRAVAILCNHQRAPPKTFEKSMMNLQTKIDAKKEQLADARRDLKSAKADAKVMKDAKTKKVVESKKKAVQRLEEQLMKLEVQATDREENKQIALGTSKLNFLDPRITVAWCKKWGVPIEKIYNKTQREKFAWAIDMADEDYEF

B1: Substrate A (dsDNA)
DNA 1: AGCGTTGAAGATATGTGGCAAAACCTTTGT
DNA 2: ACAAAGGTTTTGCCACATATCTTCAACGCT
Kd [1]: 3.55 nM
Kd [2]: 1.16 nM
Kd [3]: 3.5 nM

B2: Substrate C (dsDNA)
DNA 1: ACTCGTCACGAGAGAGATGCCACGGTATTTCAAA
DNA 2: TTTGAAATACCGTGGCATCTCTCTCGTGACGAGT
Kd [1]: 9.47 nM
Kd [2]: 1.26 nM
Kd [3]: 4.57 nM

B3: Substrate D (dsDNA)
DNA 1: B2 DNA 1
DNA 2: B2 DNA 2
modifications: single ribonucleotide rG at position 16 of top strand (2 nt upstream of cleavage site), rest DNA
Kd [1]: 8.75 nM
Kd [2]: 1.36 nM
Kd [3]: 2.29 nM
